The source of these data is patent publication EP4803150A2 (Lyvgen Biopharma Holdings Limited, dated 2026).

In the assay the target is T1, PD-1 (human, UniProt Q15116 25-167, limits assumed).
T1 construct: On Jurkat T cells expressing human PD-1 in the reporter assay
Description: FCM or ELISA, graded. (In general: ELISA stands for enzyme-linked immunosorbent assay.)

T1 sequence (Q15116 25-167 limits assumed): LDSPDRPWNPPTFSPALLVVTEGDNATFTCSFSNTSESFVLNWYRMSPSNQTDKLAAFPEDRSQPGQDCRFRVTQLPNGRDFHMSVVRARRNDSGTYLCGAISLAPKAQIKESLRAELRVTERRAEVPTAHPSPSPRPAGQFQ

B1: Ly2904 (multi-specific antibody)
chain 1: QVQLVQSGAEVKKPGASVKVSCKASGYTFTSYVMHWVRQKPGQGLEWIGYINPYNEGTESTDKFKGRATMTSDKSTSTVYMELSSLRSEDTAVYYCASIYYGYEGTYFGVWGQGTLVTVSSASTKGPSVFPLAPSSKSTSGGTAALGCLVKDYFPEPVTVSWNSGALTSGVHTFPAVLQSSGLYSLSSVVTVPSSSLGTQTYICNVNHKPSNTKVDKKVEPKSCGGGGSGGGGSGGGGSGGGGSEVQLVESGGGLVQPGGSLRLSCAASGFTFSTYAMNWVRQAPGKGLEWVGRIRSKYNNYATYYADSVKGRFTISRDDSKNSLYLQMNSLKTEDTAVYYCVRHGNFGNSYVSWFAYWGQGTLVTVSSGGGGSDKTHTCPPCPAPELLGPSVFLFPPKPKDTLMISRTPEVTCVVVDVSHEDPEVKFNWYVDGVEVHNAKTKPREEQYNSTYRVVSVLTVLHQDWLNGKEYKCKVSNKALGAPIEKTISKAKGQPREPQVYTLPPSREEMTKNQVSLWCLVKGFYPSDIAVEWESNGQPENNYKTTPPVLDSDGSFFLYSKLTVDKSRWQQGNVFSCSVMHEALHNHYTQKSLSLSPGKGGGGSGGGGSGGGGSGGGGSQVTLKESGPALVKPTQTLTLTCTFSGFSLSTSGTCVSWIRQPPGKALEWLATICWEDSKGYNPSLKSRLTISKDTSKNQAVLTMTNMDPVDTATYYCARREDSGYFWFPYWGQGTLVTVSS
chain 2: QVQLVQSGAEVKKPGASVKVSCKASGYTFTSYVMHWVRQKPGQGLEWIGYINPYNEGTESTDKFKGRATMTSDKSTSTVYMELSSLRSEDTAVYYCASIYYGYEGTYFGVWGQGTLVTVSSASTKGPSVFPLAPSSKSTSGGTAALGCLVKDYFPEPVTVSWNSGALTSGVHTFPAVLQSSGLYSLSSVVTVPSSSLGTQTYICNVNHKPSNTKVDKKVEPKSCGGGGSGGGGSGGGGSGGGGSQAVVTQEPSLTVSPGGTVTLTCRSSTGAVTTSNYANWVQQKPGQAPRGLIGGTNKRAPWTPARFSGSLLGGKAALTITGAQAEDEADYYCALWYSNLWVFGGGTKLTVLGGGGSDKTHTCPPCPAPELLGPSVFLFPPKPKDTLMISRTPEVTCVVVDVSHEDPEVKFNWYVDGVEVHNAKTKPREEQYNSTYRVVSVLTVLHQDWLNGKEYKCKVSNKALGAPIEKTISKAKGQPREPQVYTLPPSREEMTKNQVSLSCAVKGFYPSDIAVEWESNGQPENNYKTTPPVLDSDGSFFLVSKLTVDKSRWQQGNVFSCSVMHEALHNRFTQKSLSLSPGKGGGGSGGGGSGGGGSGGGGSNIQMTQSPSSLSASVGDRVTITCKAGQNVNNYLAWYQQKPGKAPKVLIFNANSLQTGVPSRFSGSGSGTDFTLTISSLQPEDFATYYCQQYNSWPTFGGGTKVEIK
chain 3: EIVLTQSPATLSLSPGERATLSCRASSSVSYMHWYQQKPGQAPRPWIYATSNLASGIPARFSGSRSGTDYTLTISSLEPEDFAVYYCQQWSSNTLTFGGGTKVEIKRTVAAPSVFIFPPSDEQLKSGTASVVCLLNNFYPREAKVQWKVDNALQSGNSQESVTEQDSKDSTYSLSSTLTLSKADYEKHKVYACEVTHQGLSSPVTKSFNRGEC
notes: anti-B7H3/CD3/PD-1
For B1, the binding result is “binds”.
